Data on 16 molecules can be found in patent US20230295310A1 (ABCELLERA BIOLOGICS, published 2023).

The target of test [1] is T1, cynomolgus monkey CD3 (cynomolgus monkey, UniProt Q95LI5 22-198; Q95LI8 22-171; Q95LI7 23-181).
T1 construct: whole, on cells; CD3 on purified cynomolgus monkey CD3 pan T cells; also called cyno CD3; CD3 on cyno primary T cells
The experiment in a line: flow cytometry, cyno primary T cells. In a few lines: (§1)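 Antibodies at 25 nM in PBS + 2% FBS were incubated with CD3-expressing cells for 30 minutes at 4° C and analysed by flow cytometry. Median fluorescence intensity was normalized to isotype control to give fold over isotype (FOI); FOI ≥10 counted as binding.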

The target in test [2] is T2, human CD3 (human, UniProt P07766 23-207; P04234 22-171; P09693 23-182).
T2 construct: whole, on cells; also called CD3 on Jurkat cells; CD3 on human primary T cells
As to the kind of experiment: flow cytometry, Jurkat cells. In a few lines: as §1

For test [3], the target named is T3, human CD3 expressed on cells (human, UniProt P07766 23-207; P04234 22-171; P09693 23-182).
T3 construct: whole, on cells; CD3 complex on Jurkat cells and on human primary T cells
As to the kind of experiment: flow cytometry, 25 nM. In a few lines: as §1

Test [4] addresses T4, cynomolgus monkey CD3 expressed on primary T cells (cynomolgus monkey, UniProt Q95LI5 22-198; Q95LI8 22-171; Q95LI7 23-181).
T4 construct: whole, on cells; CD3 complex on purified cynomolgus monkey T cells; also called cyno CD3
The experiment in a line: flow cytometry, 25 nM. In a few lines:
as §1

Test [5] deals with T5, human CD3 expressed on cells (Jurkat cells; human primary T cells) (human, UniProt P07766 23-207; P04234 22-171; P09693 23-182).
T5 construct: whole, on cells
As to the kind of experiment: flow cytometry, 25 nM, Jurkat cells. In a few lines: as §1

Test [6] concerns the target T5, human CD3 expressed on cells (Jurkat …). As to the kind of experiment: flow cytometry, 25 nM, human primary T cells. In a few lines: as §1
The target in test [7] is T6, cynomolgus monkey CD3 expressed on cyno primary T cells (cynomolgus monkey, UniProt Q95LI5 22-198; Q95LI8 22-171; Q95LI7 23-181).
T6 construct: whole, on cells; CD3 complex on purified cynomolgus monkey CD3 pan T cells; also called cyno CD3
As to the kind of experiment: flow cytometry, 25 nM, cyno primary T cells. In a few lines: as §1

T2 sequence (P07766 23-207, chain 1 of 3): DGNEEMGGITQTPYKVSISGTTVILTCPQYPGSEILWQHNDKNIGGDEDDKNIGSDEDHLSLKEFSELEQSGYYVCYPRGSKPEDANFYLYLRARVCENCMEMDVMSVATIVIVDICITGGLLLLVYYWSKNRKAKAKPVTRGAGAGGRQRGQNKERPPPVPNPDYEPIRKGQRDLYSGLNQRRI
T2 sequence (P04234 22-171, chain 2 of 3): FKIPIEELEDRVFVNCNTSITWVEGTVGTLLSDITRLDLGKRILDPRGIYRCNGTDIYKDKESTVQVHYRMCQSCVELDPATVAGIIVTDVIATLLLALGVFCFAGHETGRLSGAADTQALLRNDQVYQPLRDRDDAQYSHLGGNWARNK
T2 sequence (P09693 23-182, chain 3 of 3): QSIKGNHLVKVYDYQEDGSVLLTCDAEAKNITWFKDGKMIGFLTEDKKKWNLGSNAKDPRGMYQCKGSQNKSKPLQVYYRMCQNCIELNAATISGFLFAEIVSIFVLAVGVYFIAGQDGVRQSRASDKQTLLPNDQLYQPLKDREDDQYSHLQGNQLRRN
T3 sequence (P07766 23-207, chain 1 of 3): as the sequence (P07766 23-207, chain 1 of 3) above
T3 sequence (P04234 22-171, chain 2 of 3): as the sequence (P04234 22-171, chain 2 of 3) above
T3 sequence (P09693 23-182, chain 3 of 3): as the sequence (P09693 23-182, chain 3 of 3) above
T5 sequence (P07766 23-207, chain 1 of 3): as the sequence (P07766 23-207, chain 1 of 3) above
T5 sequence (P04234 22-171, chain 2 of 3): as the sequence (P04234 22-171, chain 2 of 3) above
T5 sequence (P09693 23-182, chain 3 of 3): as the sequence (P09693 23-182, chain 3 of 3) above
T4 sequence (Q95LI5 22-198, chain 1 of 3): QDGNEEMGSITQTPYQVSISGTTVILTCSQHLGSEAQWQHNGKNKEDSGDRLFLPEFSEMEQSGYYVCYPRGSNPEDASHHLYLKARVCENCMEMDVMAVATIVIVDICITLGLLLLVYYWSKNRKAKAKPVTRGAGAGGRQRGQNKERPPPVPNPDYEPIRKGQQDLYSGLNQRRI
T4 sequence (Q95LI8 22-171, chain 2 of 3): as the sequence (P04234 22-171, chain 2 of 3) above, with I5V, N15K, I20V, S32T, D33N, I34N, T64A, S74N, V83L, H141R counted along it
T4 sequence (Q95LI7 23-181, chain 3 of 3): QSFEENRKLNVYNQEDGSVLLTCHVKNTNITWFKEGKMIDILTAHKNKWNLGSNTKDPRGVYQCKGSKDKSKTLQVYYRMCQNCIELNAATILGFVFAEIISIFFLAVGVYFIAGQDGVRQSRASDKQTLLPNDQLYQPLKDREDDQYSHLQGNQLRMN
T1 sequence (Q95LI5 22-198, chain 1 of 3): as the sequence (Q95LI5 22-198, chain 1 of 3) above
T1 sequence (Q95LI8 22-171, chain 2 of 3): as the sequence (P04234 22-171, chain 2 of 3) above, with I5V, N15K, I20V, S32T, D33N, I34N, T64A, S74N, V83L, H141R counted along it
T1 sequence (Q95LI7 23-181, chain 3 of 3): as the sequence (Q95LI7 23-181, chain 3 of 3) above
T6 sequence (Q95LI5 22-198, chain 1 of 3): as the sequence (Q95LI5 22-198, chain 1 of 3) above
T6 sequence (Q95LI8 22-171, chain 2 of 3): as the sequence (P04234 22-171, chain 2 of 3) above, with I5V, N15K, I20V, S32T, D33N, I34N, T64A, S74N, V83L, H141R counted along it
T6 sequence (Q95LI7 23-181, chain 3 of 3): as the sequence (Q95LI7 23-181, chain 3 of 3) above

B1: mAb 312 (antibody, V domains shown)
VH: EGQLLESGGGLVQPGGSLRLSCAASGFTFSRYAMSWIRQAPGKGLEWVSVINGSGGDKNYADSVKGRFTISRDNSKNSLYLLMNGLRVEDTAIYFCAKKFSYYYYYMDVWGKGTSVTVSS
VL: SYELTQPLSVSVALGQTARITCGGNNIGSKNVHWHQQKPGQAPVLVIYRESNRPSGIPGRFSGSNSGNTATLTSSRAQAGDEADYYCQVWDSSTAVFGGGTQLTAL
notes: VH and VL only
B1: the binding result in test [1] and in test [2] was “no binding (tested: FOI ≥10 = positive; 25 nM)” each time.

B2: mAb 319 (antibody, V domains shown)
VH: EVQLLESGGGLLQPGGSRRLSCAATEFTFRSYAMSWVRQSPGKGLEWVSVISGRGDNTYYADSVKGRFTISRDNSKNTLYLQMNSLRAEDTAVYYCAKMYSYYYYYMDVWGKGTTVTVSS
VL: SYELTQPLSVSVALGQTARITCGGNNIGSKNVHWHQQKPGQAPVLVIYRESNRPSGIPERFSGSNSGNTATLTSSRAQAGDEADYYCQVWDSSTAVFGGGTQLTAL
notes: VH and VL only
Regarding B2, the binding result in test [1] and in test [2] was “no binding (tested: FOI ≥10 = positive; 25 nM)” in each case.

B3: mAb 158 (antibody, V domains shown)
VH: EVQLVESGGGLVQPGRSLRLSCAASGFTFADYTMHWVRQVPGKGLEWVSGISWNSGSVDYADSVKGRFTISRDNAKKTLYLQMNSLRAEDTALYYCAKDSSGYGHYYFYYLDVWGKGTTVTVSS
VL: EIVMTQSPATLSVSPGERATLSCRATQSVSSNLAWYQQKPGQAPRLLIYSTSTRATGIPARFSGSRSGTEFTLTISSLQSEDSAVYYCQQYNNWPHFGQGTRLEIK
B3: in test [3], the “Human primary T Cell Binding (FOI)” value was 164 FOI and the “Jurkat Cell Binding (FOI)” value was found to be 117 FOI. In addition, the “Cyno primary T Cell Binding (FOI)” value in test [4] is 10.9 FOI.

B4: mAb 171 (antibody, V domains shown)
VH: EVQLVESGGGLVQPGRSLRLSCAASGFTFADYTMHWVRQAPGQGLEWVSGISWNSGSIDYADSVKGRFIISRDNAKKTLYLQMNSLRAEDTALYYCAKDSSGYGHYYFYYLDVWGKGTTVTVSS
VL: EIVMTQSPATLSVSPGERATLSCRASQSVSSNLAWYQQKPGQAPRLLIYSTSTRATGIPARFSGSRSGTEFTLTISSLQSEDSAVYYCQQYNNWPHFGQGTRLEIK
notes: VH/VL only
Take B4: the “Binding (FOI)” value in test [5] came to 108 FOI; in test [6], 165 FOI; in test [7] it was 20.1 FOI.

B5: mAb 121 (antibody, V domains shown)
VH: EVQLVESGGGLVQPGRSLRLSCATSGFTFADYTMHWVRQAPGKGLEWVSGISWNSGSIDYADSVKGRFTISRDNAKKSLYLQMNSLRAEDTALYFCAKDSSGYGHYYFYYLDVWGKGTTVTVSS
VL: EIVMTQSPGTLSVSPGKRATLSCRASQSVSSNLAWYQQKPGQGPRLLIYSTSTRATGIPARFSGSGSGTEFTLTISSLQSEDSAVYYCQHYNNWPHFGQGTRLEIK
Regarding B5, in test [3], the “Human primary T Cell Binding (FOI)” value amounted to 101 FOI and the “Jurkat Cell Binding (FOI)” value was found to be 101 FOI. In addition, in test [4], the “Cyno primary T Cell Binding (FOI)” value turned out to be 12.2 FOI.

B6: mAb 176 (antibody, V domains shown)
VH: EVELVESGGGLVQPGRSLRLSCAASGFKFDDYTMHWVRLPPGKGLEWVSGISWNSGTIDYGDSVKGRFTISRDNAKNSLYLQMNSLRVEDTALYYCAKDTSGYGHYFYYYMDVWGKGTTVTVSS
VL: DIQMTQSPSSLSASIGDRVSITCRTSQIINNYLNWYQQKPGKAPKVLIYSASSLQSGVPSRFSGSGSGTDFTLTINSLQPEDFATYYCQQSYNFPITFGQGTRLELK
notes: VH/VL only
On to B6, for which the “Binding (FOI)” value in test [5] came out at 114 FOI; in test [6] it was 147 FOI; in test [7], 34 FOI.

B7: mAb 177 (antibody, V domains shown)
VH: EVQLVESGGGLVQPGMSLRLSCAASGFTFDDYTMHWVRQSPGKGLEWVAGISWNSGTIGYGDSMKGRFTISRDNAKNSLDLQMNSLRVEDTALYYCAKDTSGYGHYYYYFMDVWGKGTTVTVSS
VL: DIQMTQSPSSLSASIGDRVSITCRTSQIINNYLNWYQQKPGKAPKLLIYSASSLQSGVPSRFSGSGSGTDFTLTLSSLQPEDFATYFCQQSYNFPITFGQGTRLELK
notes: VH/VL only; the printed VL holds a letter U
Turning to B7, the “Binding (FOI)” value in test [5] is 121 FOI; in test [6] it was 146 FOI; in test [7], 45.1 FOI.

B8: mAb 78 (antibody, V domains shown)
VH: EVQLVESGGGLVQPGGSLRLSCAASGFTFSSYWMSWVRQAPGKGLEWVANIKQDGSEKYYVDSVKGRFTISRDNAKNSLYLQMNSLRAEDTAVYYCARDNSPSFYWYFDLWGRGTLVTVSS
VL: DIQMTQSPSTLSASVGDRVTITCRASQSLSRWLAWYQQKPGKAPKLLIYKASSLESGVPSRFSGSGSGTEFTLTISSLQPDDFATYYCQQYYTYSRTFGQGTKVEIK
Take B8: in test [3], the “Human primary T Cell Binding (FOI)” value worked out at 116 FOI and the “Jurkat Cell Binding (FOI)” value worked out at 104 FOI. Also, the “Cyno primary T Cell Binding (FOI)” value in test [4] came out at 41.6 FOI.

B9: mAb 323 (antibody, V domains shown)
VH: QVQVVQSGAEVKNPGASVKVSCKASGYTFTGYYMHWVRQAPGQGLEWMGWIYPNSGRTNYAQKFQGRVTMTRDTSISTAYMELSRLRSDDTAVYYCARLEQLVFDYWGQGTLVTVSS
VL: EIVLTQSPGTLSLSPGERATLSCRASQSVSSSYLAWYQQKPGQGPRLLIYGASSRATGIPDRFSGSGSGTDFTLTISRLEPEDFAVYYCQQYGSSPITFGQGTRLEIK
notes: VH and VL only
Take B9: the binding result in test [1] and in test [2] was “no binding (tested: FOI ≥10 = positive; 25 nM)” in each case.

B10: mAb 324 (antibody, V domains shown)
VH: QVQVVQSGAEVKKPGASVKVSCKTSGYTFTDYYIHWVRQAPGQGLEWMGWIYPKSGRTDNAQNFKGRVAMTRDTSINTAYLELNRLRSDDTAIYYCARLEELVFDYWGQGTLVTVSS
VL: DIQMTQSPSSVSASVGDRVTITCRASQVISRWLAWYQLKPGKAPKLLIYEASSLQSWVPSRFSGSGSGTDFTLTISSLQPEDFATYYCQQANSFPWTFGQGTKVEIK
Take B10: the binding result in test [1] and in test [2] was “no binding (tested: FOI ≥10 = positive; 25 nM)” throughout.

B11: mAb 325 (antibody, V domains shown)
VH: QVQVVQSGAEVKKPGASVKVSCKTSGYTFTDQYIHWVRQAPGQGLEWMGWIYPKSGRTDNAQKFKGRVAMTRDTSINTAYMELSSLRSDDTATYYCARLEELVFDYWGQGTLVTVSS
VL: not shown
As to B11, the binding result in test [1] and in test [2] was “no binding (tested: FOI ≥10 = positive; 25 nM)” each time.

B12: mAb 178 (antibody, V domains shown)
VH: EVQLVESGGGLVQPGRSLRLSCAASGFTFDDYTMHWVRQAPGKGLEWVSDISWNSGTIGYADSVKGRFTISRDNAKNSLYLQMNSLRAEDTALYYCVKDSSGYGHYYKYYMDVWGKGTTVTVSS
VL: DIQMTQSPSSLSASVGDRVTITCRASQSISNYLNWYQQKAGKVPKVLIYGSSSLQSGVPSRFSGSGSGTDFTLTISSLQPEDFASYYCQQTYSSPLTFGGGTKVDFK
notes: VH/VL only
For B12, the results for the “Binding (FOI)” value in test [5], in test [6] and in test [7] were 128 FOI, 172 FOI and 158 FOI, respectively.

B13: mAb 180 (antibody, V domains shown)
VH: EVNLVESGGGLVQPGRSLRLSCAASGFTFDDYTMHWVRQVPGKGLEWVSNISWNSGSLGYADSVKGRFTISRDNAKDSLYLQMNSLRVEDTALYYCAKDSSGYGHYNSYYMDVWGKGTTVTVSS
VL: DIQMTQSPSSLSASVGDRVTITCRASQSIRNYLNWYQQKPGKAPKVLIYSASSLQSGVPSRFSGSGSGTDFTLTISSLQPEDFASFYCQQTYSTPITFGQGTRLEIK
notes: VH/VL only
Take B13: in test [7], the “Binding (FOI)” value is 90.2 FOI.

B14: mAb 69 (antibody, V domains shown)
VH: QMLLVESGGGVVQPGRSLTLSCAASGFTFRSYGMHWVRQAPGRGLEWVAIIWYDGSTEYYADSVKGRFTISRANSKNMLYLQMNSLRAEDTAVYYCAAFDYTNSFDIWGQGTMVTVSS
VL: DIVVTQTPLSSPVTLGQPASISCRSSQRFVHSDGNTYLSWLQQRPGQPPRLLIYKISNRISGVPDRFSGSGAGTDFKLKISRVEAEDVGIYYCMQATQFPYTFGQGTKLEIK
Regarding B14, in test [3], the “Human primary T Cell Binding (FOI)” value turned out to be 123 FOI and the “Jurkat Cell Binding (FOI)” value is 145 FOI. Further, in test [4], the “Cyno primary T Cell Binding (FOI)” value stood at 245 FOI.

B15: mAb 70 (antibody, V domains shown)
VH: QGQLVESGGGVVQPGRSLRLSCEASGFTFRSYGMHWVRQPPGKGLEWVAIIWYDGGKKYYGDSVKGRFTISRDNPKNTLYLQMNSLRPEDTAVYYCMAYDYSNGFDIWGQGTMVTVSS
VL: DIVMTQTPLSSPVTLGQPASISCRSSQSFVHSDGSTYLSWLQQRPGQPPRLLIYKISNRFSGVPDRFSGRGAGTDFTLKISRVEAEDVGIYYCMQNTQFPYTFGQGTKLEIK
As for B15, in test [3], the “Human primary T Cell Binding (FOI)” value amounted to 131 FOI and the “Jurkat Cell Binding (FOI)” value turned out to be 140 FOI. Also, the “Cyno primary T Cell Binding (FOI)” value in test [4] came to 238 FOI.

B16: mAb 153 (antibody, V domains shown)
VH: QVQLVESGGGVVQPGRSLRLSCAASGFTFSTYGMHWVRQAPGKGLEWVAVIWYDGSHKYYSDSVKGRFTISRDNSKNTLYLQMNSLRVEDTAIYYCARTGITGTTAYFYFDSWGQGTLVTVSS
VL: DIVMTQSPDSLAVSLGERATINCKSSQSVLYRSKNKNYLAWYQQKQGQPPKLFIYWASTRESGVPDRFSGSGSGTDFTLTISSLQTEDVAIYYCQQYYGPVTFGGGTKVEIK
As for B16, in test [3], the “Human primary T Cell Binding (FOI)” value turned out to be 262 FOI and the “Jurkat Cell Binding (FOI)” value is 98.5 FOI. Moreover, the “Cyno primary T Cell Binding (FOI)” value in test [4] amounted to 26.1 FOI.
